Laboratory results published in article PMC3184956, “How to Change the Oligomeric State of a Circular Protein Assembly: Switch from 11-Subunit to 12-Subunit TRAP Suggests a General Mechanism” (PLoS ONE, 2011).
Each block holds one molecule with its values, some of them ahead of it.

Assays:
[1] = target: Bacillus halodurans trp RNA-binding attenuation protein (TRAP) (Bacillus halodurans); assay: native MS; nanoflow electrospray, 100 mM ammonium acetate (pH 7.5), 10 µM L-tryptophan, protein 0.1–0.4 mg/ml
[2] = target: Bacillus halodurans trp RNA-binding attenuation protein (TRAP) (Bacillus halodurans); assay: crystal structure; hanging drop vapor diffusion at 18°C, protein with 5-15 mM L-tryptophan; data at 120 K; ring oligomer built from the asymmetric unit and crystallographic symmetry
[3] = target: Bacillus stearothermophilus E71stop TRAP (Bacillus stearothermophilus); assay: native MS; nanoflow electrospray, 100 mM ammonium acetate (pH 7.5), 10 µM L-tryptophan, protein 0.1–0.4 mg/ml
[4] = target: Bacillus stearothermophilus E71stop TRAP (Bacillus stearothermophilus); assay: crystal structure; hanging drop vapor diffusion at 18°C, protein with 5-15 mM L-tryptophan; data at 120 K; ring oligomer built from the asymmetric unit and crystallographic symmetry
[5] = target: the molecule itself; assay: native MS; nanoflow electrospray, 100 mM ammonium acetate (pH 7.5), 10 µM L-tryptophan, protein 0.1–0.4 mg/ml
[6] = target: the molecule itself; assay: crystal structure; hanging drop vapor diffusion at 18°C, protein with 5-15 mM L-tryptophan; data at 120 K; ring oligomer built from the asymmetric unit and crystallographic symmetry

- stoichiometry N [1]: 12 subunits
- stoichiometry N [2]: 12 subunits
Molecule: Bacillus halodurans trp RNA-binding attenuation protein (TRAP) (natural protein)

- stoichiometry N [3]: 12 subunits
- stoichiometry N [4]: 12 subunits
Molecule: Bacillus stearothermophilus E71stop TRAP (domain or fragment)

B1: Bacillus subtilis V11L TRAP (natural protein, UniProt P19466 1-75, looked up)
chain: MNQKHSSDFVLIKAVEDGVNVIGLTRGTDTKFHHSEKLDKGEVIIAQFTEHTSAIKVRGEALIQTAYGEMKSEKK
notes: TRAP of Bacillus subtilis with the mutation Val11 to Leu; Homo-12-mer by native mass spectrometry; could not be crystallised; also called V11L mutant; B. subtilis V11L TRAP; source: QuikChange on a pET9a plasmid containing the wild type gene; produced and purified as described previously [10]; copies: 12
- stoichiometry N [5]: 12 subunits

B2: Bacillus stearothermophilus TRAP, wild type (natural protein, UniProt Q9X6J6 1-74, looked up)
chain: MYTNSDFVVIKALEDGVNVIGLTRGADTRFHHSEKLDKGEVLIAQFTEHTSAIKVRGKAYIQTRHGVIESEGKK
notes: Homo-11-mer; control of the native mass spectrometry; also called B. stearothermophilus TRAP; TRAP11; source: pET9a plasmid containing the wild type gene; produced and purified as described previously [10]; copies: 11
- stoichiometry N [5]: 11 subunits

B3: Bacillus subtilis K71stop TRAP (domain or fragment, UniProt P19466 1-71, looked up)
chain: MNQKHSSDFVVIKAVEDGVNVIGLTRGTDTKFHHSEKLDKGEVIIAQFTEHTSAIKVRGEALIQTAYGEMK
notes: TRAP of Bacillus subtilis with the last four amino acids removed from the C-terminus (K71stop); Homo-12-mer; also called B. subtilis TRAP K71stop; mutant B. subtilis TRAP; source: QuikChange on a pET9a plasmid containing the wild type gene; produced and purified as described previously [10]; size-exclusion chromatography (Superdex 200); copies: 12
- stoichiometry N [6]: 12 subunits
